Data as given in PMC8044456, “Tandem UGT71B5s Catalyze Lignan Glycosylation in Isatis indigotica With Substrates Promiscuity” (Frontiers in Plant Science, 2021).

Columns and labels:
Test in all cases: LC/MS glucosylation assay, Lineweaver-Burk
Assay type in all cases: biochemical, Isatis tinctoria
Details in all cases: 2 mM UDP-glucose, 20–200 μM acceptor, 100 mM phosphate pH 8.0, 30°C
[1] = substrate: COc1cc(C[C@H]2COC(=O)[C@@H]2Cc2ccc(O)c(OC)c2)ccc1O
From the text: (§1) LC/MS glucosylation assay, Lineweaver-Burk on IiUGT71B5b

[2] = substrate: Oc1cc2c(cc1[C@H]1OC[C@H]3[C@@H]1CO[C@@H]3c1ccc3c(c1)OCO3)OCO2
From the text: as §1

[3] = substrate: COc1cc(C[C@H]2COC(=O)[C@@H]2Cc2ccc(O)c(OC)c2)ccc1O; remark: listed apart in the source
From the text: (§2) LC/MS glucosylation assay, Lineweaver-Burk on IiUGT71B5a

[4] = substrate: COc1cc(C[C@@H](CO)[C@H](CO)Cc2ccc(O)c(OC)c2)ccc1O
From the text: as §2

[5] = substrate: COc1cc([C@@H]2OC[C@@H]3[C@H]2CO[C@H]3c2ccc(O)c(OC)c2)ccc1O
From the text: as §2

[6] = substrate: Oc1cc2c(cc1[C@H]1OC[C@H]3[C@@H]1CO[C@@H]3c1ccc3c(c1)OCO3)OCO2; remark: listed apart in the source
From the text: as §2

[7] = substrate: [H][C@@]1(Oc2ccc([C@H]3OC[C@]4([H])[C@@H](c5ccc(O)c(OC)c5)OC[C@]34[H])cc2OC)O[C@H](CO)[C@@H](O)[C@H](O)[C@H]1O
From the text: as §2

[8] = substrate: COc1cc(C[C@H]2CO[C@H](c3ccc(O)c(OC)c3)[C@H]2CO)ccc1O
From the text: as §2

B1: IiUGT71B5b (Isatis tinctoria) (protein)
chain: MKIELVFMPSPGIGHLRSTVQLAKQLVNGDDRLSITVIIIPRSSGGDATDSAQISSLFTASQDRLRYESISVADEPTTNRLPTQHYIASQKPQVRDAVAKLIDPTRVDSPPRLAGFVVDMFCISMIDLADEFGVPTYMVYTSNARFLGITLHLQLMIDEKKYDATELDESVNELEFPCLTRPYPVDCLPHILISKDYLFMDQARSYRKMKGILVNTVAELEPHALELFSGDGDLPRAYPVGPVLHLESRSDHSNDDGKQSEILRWLDEQPAKSVVFLCFGSMGGFNEEQAREIAVALDRSGHRFLWSLRRASPDIMKEGPRDYTNLDEVLPEGFLDRTSERGKIIGWAPQAAVLAKPAIGGFVTHCGWNSMLESLWFGVPTVTWPLYAEQKVNAFEMVEELGLAVEIRRSLKGDLMFGGMETVTAEDIERAIRRVMEQGSDVRNRVKEMAEKCHVALTDGGSSKAALRKFIEDVVENVAA
notes: full-length ORF 1,443 bp, 480 aa; pET-32a+ tagged recombinant, E. coli BL21(DE3), Ni-NTA; tag removal not mentioned; gene in tandem cluster Ii4G26670/Ii4G26680/Ii4G26690 (Ii4G26690 = IiUGT71B5c); genome VHIU00000000
- Km [1]: 61.34 ± 1.48 µM
- Vmax [1]: 2.41e-05 µmol/min
- kcat [1]: 0.0277 s⁻¹
- kcat/Km [1]: 451 M⁻¹ s⁻¹
- Km [2]: 135.48 ± 10.90 µM
- Vmax [2]: 0.000125 µmol/min
- kcat [2]: 0.143 s⁻¹
- kcat/Km [2]: 1060 M⁻¹ s⁻¹

B2: IiUGT71B5a (Isatis tinctoria) (protein)
chain: MKIELVFIPSPGIGHLRSTVELAKQLVNGDDRLSITVIIIPRSSGGDATDSAQISSLFAASQDRLRYETISVADEPTADRLPTQLYIKNQKPQVRDAVAKILDPARVDSPPRLAGFVVDMFCTSMIDLADEFGVPTYMVYTSNATFLGITLHLQLMLDEKKYDTSELDESVNELEFPCLTRPYPVECLPYLFISKEWLPFFMDQARSFRKMKGILVNTVAELEPHALELFSGDDDLPRAYPVGPVLHLESGSDNSNDDGKQSEILRWLDDQPAKSVVFLCFGSMGGFNEEQTREIAVALDRSGHRFLWSLRRASPDILKQGPGDYTDLDEVLPEGFLDRTLERGKIIGWAPQAAVLAKPAIGGFVTHCGWNSMLESLWFGVPMVTWPLYAEQKVNAFVMVEELGLAVEIRRSLKGDLMAGGMETVAAEDIERAIRRVMEQDSDVRNRVKEMAEKCHVALTDGGSSQVALRKFIQDVIENVVV
notes: full-length ORF 1,449 bp, 482 aa; pET-32a+ tagged recombinant, E. coli BL21(DE3), Ni-NTA; tag removal not mentioned; gene in tandem cluster Ii4G26670/Ii4G26680/Ii4G26690 (Ii4G26690 = IiUGT71B5c); genome VHIU00000000
- Km [3]: 62.35 ± 1.53 µM
- Vmax [3]: 3.5e-05 µmol/min
- kcat [3]: 0.0403 s⁻¹
- kcat/Km [3]: 646 M⁻¹ s⁻¹
- Km [4]: 168.48 ± 9.18 µM
- Vmax [4]: 8.34e-05 µmol/min
- kcat [4]: 0.0961 s⁻¹
- kcat/Km [4]: 571 M⁻¹ s⁻¹
- Km [5]: 67.16 ± 2.00 µM
- Vmax [5]: 6.12e-05 µmol/min
- kcat [5]: 0.07 s⁻¹
- kcat/Km [5]: 1040 M⁻¹ s⁻¹
- Km [6]: 48.00 ± 0.79 µM
- Vmax [6]: 0.00049 µmol/min
- kcat [6]: 0.563 s⁻¹
- kcat/Km [6]: 11700 M⁻¹ s⁻¹
- Km [7]: 136.06 ± 6.56 µM
- Vmax [7]: 0.000111 µmol/min
- kcat [7]: 0.128 s⁻¹
- kcat/Km [7]: 939 M⁻¹ s⁻¹
- Km [8]: 568.29 ± 16.08 µM
- Vmax [8]: 0.000141 µmol/min
- kcat [8]: 0.162 s⁻¹
- kcat/Km [8]: 285 M⁻¹ s⁻¹
